# Laboratory results taken from the supplement of paper PMC9112550, “Optimization of the antimicrobial peptide Bac7 by deep mutational scanning” (BMC Biology, 2022).
# Tested on: Escherichia coli TOP10
# Test: shrunken log2 fold change of peptide-encoding DNA abundance (4.5 h post-induction vs induction); higher = less antimicrobial activity (less host growth inhibition)
# Conditions: time post-induction: 4.5 h; library: site-saturation at positions 5, 18, 19, 20
# 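Note: peptides expressed intracellularly from a pBAD plasmid library in pooled LB shake-flask culture, induced with 0.3% L-arabinose, DNA abundance read by NGS, three biological replicates, DESeq2 with apeglm shrinkage.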
row,Sequence,shrunken log2 fold change
1,RRIRWRPPRLPRPRPRPNVTPRP,-0.22
2,RRIRSRPPRLPRPRPRPHNRPRP,0.0124
3,RRIRTRPPRLPRPRPRPFQPPRP,0.0737
4,RRIRMRPPRLPRPRPRPTGDPRP,1.3
5,RRIRSRPPRLPRPRPRPKDTPRP,-0.145
6,RRIRRRPPRLPRPRPRPDSSPRP,-0.118
7,RRIRMRPPRLPRPRPRPNAHPRP,8.74e-05
8,RRIRPRPPRLPRPRPRPEADPRP,0.0865
9,RRIRTRPPRLPRPRPRPEWYPRP,0.135
10,RRIRIRPPRLPRPRPRPFWLPRP,0.183
11,RRIRPRPPRLPRPRPRPKRWPRP,0.441
12,RRIRPRPPRLPRPRPRPDYLPRP,-0.259
13,RRIRYRPPRLPRPRPRPARYPRP,-0.000578
14,RRIRARPPRLPRPRPRPNPIPRP,-0.19
15,RRIRNRPPRLPRPRPRPIICPRP,-0.0922
16,RRIRTRPPRLPRPRPRPVQPPRP,0.238
17,RRIRCRPPRLPRPRPRPVCTPRP,0.0452
18,RRIRFRPPRLPRPRPRPIEIPRP,-0.143
19,RRIRHRPPRLPRPRPRPNYWPRP,-0.358
20,RRIRMRPPRLPRPRPRPDFRPRP,0.146
21,RRIRYRPPRLPRPRPRPVGFPRP,-0.308
22,RRIRIRPPRLPRPRPRPTDTPRP,-1.86
23,RRIRCRPPRLPRPRPRPKEVPRP,-0.289
24,RRIRFRPPRLPRPRPRPIWPPRP,0.21

row,Sequence,shrunken log2 fold change
1,RRIRSRPPRLPRPRPRPLFAPRP,0.0687
2,RRIRDRPPRLPRPRPRPMLHPRP,0.202
3,RRIRRRPPRLPRPRPRPFAWPRP,0.189
4,RRIRARPPRLPRPRPRPESTPRP,1.05
5,RRIRPRPPRLPRPRPRPGRFPRP,0.434
6,RRIRHRPPRLPRPRPRPIWPPRP,0.0213
7,RRIRTRPPRLPRPRPRPDVCPRP,0.11
8,RRIRSRPPRLPRPRPRPCCEPRP,-0.22
9,RRIRRRPPRLPRPRPRPWMHPRP,0.103
10,RRIRVRPPRLPRPRPRPSCWPRP,0.178
11,RRIRIRPPRLPRPRPRPFWRPRP,-0.00848
12,RRIRPRPPRLPRPRPRPIWKPRP,0.0296
13,RRIRFRPPRLPRPRPRPVLMPRP,-0.13
14,RRIRARPPRLPRPRPRPMEWPRP,0.259
15,RRIRNRPPRLPRPRPRPIQPPRP,-0.213
16,RRIRVRPPRLPRPRPRPAHMPRP,-0.103
17,RRIRTRPPRLPRPRPRPDASPRP,0.0856
18,RRIRLRPPRLPRPRPRPWAWPRP,-0.0255
19,RRIRERPPRLPRPRPRPPAIPRP,-0.0287
20,RRIRFRPPRLPRPRPRPHFSPRP,-0.24
21,RRIRERPPRLPRPRPRPCMAPRP,-0.336
22,RRIRIRPPRLPRPRPRPCGQPRP,-0.279
23,RRIRERPPRLPRPRPRPTDSPRP,0.0161
24,RRIRLRPPRLPRPRPRPERIPRP,0.0484

row,Sequence,shrunken log2 fold change
1,RRIRDRPPRLPRPRPRPKRAPRP,-0.0273
2,RRIRNRPPRLPRPRPRPYFVPRP,-0.312
3,RRIRERPPRLPRPRPRPMAWPRP,0.151
4,RRIRIRPPRLPRPRPRPEEYPRP,-0.0228
5,RRIRMRPPRLPRPRPRPSVGPRP,0.357
6,RRIRYRPPRLPRPRPRPDVWPRP,-0.194
7,RRIRCRPPRLPRPRPRPMFAPRP,0.186
8,RRIRSRPPRLPRPRPRPYLPPRP,-0.552
9,RRIRNRPPRLPRPRPRPHTWPRP,-0.296
10,RRIRFRPPRLPRPRPRPIYLPRP,-0.626
11,RRIRDRPPRLPRPRPRPTPYPRP,-0.13
12,RRIRLRPPRLPRPRPRPREAPRP,0.641
13,RRIRYRPPRLPRPRPRPICYPRP,-0.691
14,RRIRDRPPRLPRPRPRPGIGPRP,0.76
15,RRIRSRPPRLPRPRPRPLTWPRP,-0.104
16,RRIRDRPPRLPRPRPRPANQPRP,0.253
17,RRIRQRPPRLPRPRPRPQHPPRP,-0.131
18,RRIRLRPPRLPRPRPRPAHTPRP,0.0258
19,RRIRSRPPRLPRPRPRPHKPPRP,-0.507
20,RRIRARPPRLPRPRPRPMTHPRP,0.151
21,RRIRYRPPRLPRPRPRPYYHPRP,-0.283
22,RRIRNRPPRLPRPRPRPMQCPRP,0.0637
23,RRIRHRPPRLPRPRPRPGSIPRP,-0.209
24,RRIRCRPPRLPRPRPRPAMNPRP,-0.0385

row,Sequence,shrunken log2 fold change
1,RRIRQRPPRLPRPRPRPITIPRP,-0.239
2,RRIRNRPPRLPRPRPRPCTVPRP,-0.8
3,RRIRMRPPRLPRPRPRPWRVPRP,-0.158
4,RRIRKRPPRLPRPRPRPEFVPRP,0.587
5,RRIRSRPPRLPRPRPRPKEPPRP,-0.0411
6,RRIRRRPPRLPRPRPRPFLIPRP,1.61
7,RRIRHRPPRLPRPRPRPPQLPRP,-0.215
8,RRIRYRPPRLPRPRPRPLHEPRP,-0.343
9,RRIRERPPRLPRPRPRPDAMPRP,-0.0916
10,RRIRWRPPRLPRPRPRPEYRPRP,0.0624
11,RRIRGRPPRLPRPRPRPAYMPRP,-0.353
12,RRIRIRPPRLPRPRPRPGQLPRP,0.0335
13,RRIRCRPPRLPRPRPRPWIYPRP,-0.821
14,RRIRGRPPRLPRPRPRPGNRPRP,0.333
15,RRIRNRPPRLPRPRPRPKCYPRP,-0.0478
16,RRIRYRPPRLPRPRPRPMSHPRP,-0.425
17,RRIRLRPPRLPRPRPRPAQVPRP,0.324
18,RRIRRRPPRLPRPRPRPQWHPRP,0.181
19,RRIRVRPPRLPRPRPRPSRQPRP,-0.0237
20,RRIRFRPPRLPRPRPRPNYKPRP,-0.735
21,RRIRNRPPRLPRPRPRPRTSPRP,-0.0838
22,RRIRTRPPRLPRPRPRPWTDPRP,-0.17
23,RRIRNRPPRLPRPRPRPMPCPRP,0.05
